Here are results for three molecules from article PMC6969161, “Rad50 zinc hook functions as a constitutive dimerization module interchangeable with SMC hinge” (Nature Communications, 2020).

For data set [1], the target named is T1, human Rad50 (human, UniProt Q92878 1-1312).
T1 construct: Captured by the 3xFLAG tag on anti-FLAG beads, then released by PreScission cleavage, so the tag is absent in the AFM samples; Expressed with Mre11 (and Nbs1) or alone; also called Rad50-3×FLAG; R of MRN, Mre11/Rad50 and M2R2; source: Sf9, baculovirus, purified (anti-FLAG M2 beads, eluted by PreScission cleavage, HiTrapQ, Superdex 200); not shown: 3xFLAG, C-terminal, cleaved
T1 sequence (looked up): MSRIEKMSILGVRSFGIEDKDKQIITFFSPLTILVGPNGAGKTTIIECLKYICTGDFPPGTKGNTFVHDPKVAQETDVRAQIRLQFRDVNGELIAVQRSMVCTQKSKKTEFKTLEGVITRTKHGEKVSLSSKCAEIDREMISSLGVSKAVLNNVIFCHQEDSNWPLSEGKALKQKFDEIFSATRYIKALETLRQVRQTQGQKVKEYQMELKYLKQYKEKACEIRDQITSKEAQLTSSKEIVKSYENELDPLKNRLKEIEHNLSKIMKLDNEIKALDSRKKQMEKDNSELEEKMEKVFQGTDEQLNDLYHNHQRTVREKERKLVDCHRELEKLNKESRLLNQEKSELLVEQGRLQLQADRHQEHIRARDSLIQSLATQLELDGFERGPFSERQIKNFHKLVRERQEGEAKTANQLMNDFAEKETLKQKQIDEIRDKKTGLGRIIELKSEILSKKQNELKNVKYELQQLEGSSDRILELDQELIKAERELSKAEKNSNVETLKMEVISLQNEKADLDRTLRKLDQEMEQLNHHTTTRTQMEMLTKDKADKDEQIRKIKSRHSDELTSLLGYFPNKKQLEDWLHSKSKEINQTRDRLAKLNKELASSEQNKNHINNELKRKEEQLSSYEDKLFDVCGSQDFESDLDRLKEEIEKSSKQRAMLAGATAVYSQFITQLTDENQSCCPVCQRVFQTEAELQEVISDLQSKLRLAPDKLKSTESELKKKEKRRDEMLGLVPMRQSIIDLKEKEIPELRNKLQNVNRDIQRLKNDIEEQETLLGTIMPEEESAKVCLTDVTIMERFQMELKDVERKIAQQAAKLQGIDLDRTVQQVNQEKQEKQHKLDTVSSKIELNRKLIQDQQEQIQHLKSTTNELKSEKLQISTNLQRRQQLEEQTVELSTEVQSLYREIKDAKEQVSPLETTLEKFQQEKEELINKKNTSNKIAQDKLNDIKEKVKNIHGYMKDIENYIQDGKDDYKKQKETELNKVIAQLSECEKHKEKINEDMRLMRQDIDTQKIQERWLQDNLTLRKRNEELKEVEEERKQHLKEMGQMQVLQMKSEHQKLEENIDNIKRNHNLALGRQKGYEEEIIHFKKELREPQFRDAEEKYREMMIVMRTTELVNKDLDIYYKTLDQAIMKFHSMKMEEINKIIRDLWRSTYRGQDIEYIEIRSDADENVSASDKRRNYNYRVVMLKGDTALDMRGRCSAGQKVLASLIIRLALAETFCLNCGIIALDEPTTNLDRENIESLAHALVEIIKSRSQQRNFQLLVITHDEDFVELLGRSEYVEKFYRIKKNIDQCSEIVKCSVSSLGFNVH
Nature of the data set: co-purification (anti-FLAG affinity, ion exchange, size exclusion); proteins co-expressed in Sf9 cells; extract at 200 mM KCl on anti-FLAG M2 beads by Rad50-3×FLAG, eluted by PreScission cleavage, HiTrapQ; wild-type Mre11/Rad50 further on Superdex 200; molar ratio from the purified preparations. Particulars: partners not purified.

Data set [2] deals with the molecule itself. Briefly: high-speed AFM; purified complexes on bare mica, imaged in 25 mM Tris-HCl pH 7.5, 75 mM KCl, 3 mM MgCl2, tapping mode; with or without 1 mM ATP or ATP-γ-S.

B1: human Mre11 (natural protein, UniProt P49959 1-708, looked up)
chain: MSTADALDDENTFKILVATDIHLGFMEKDAVRGNDTFVTLDEILRLAQENEVDFILLGGDLFHENKPSRKTLHTCLELLRKYCMGDRPVQFEILSDQSVNFGFSKFPWVNYQDGNLNISIPVFSIHGNHDDPTGADALCALDILSCAGFVNHFGRSMSVEKIDISPVLLQKGSTKIALYGLGSIPDERLYRMFVNKKVTMLRPKEDENSWFNLFVIHQNRSKHGSTNFIPEQFLDDFIDLVIWGHEHECKIAPTKNEQQLFYISQPGSSVVTSLSPGEAVKKHVGLLRIKGRKMNMHKIPLHTVRQFFMEDIVLANHPDIFNPDNPKVTQAIQSFCLEKIEEMLENAERERLGNSHQPEKPLVRLRVDYSGGFEPFSVLRFSQKFVDRVANPKDIIHFFRHREQKEKTGEEINFGKLITKPSEGTTLRVEDLVKQYFQTAEKNVQLSLLTERGMGEAVQEFVDKEEKDAIEELVKYQLEKTQRFLKERHIDALEDKIDEEVRRFRETRQKNTNEEDDEVREAMTRARALRSQSEESASAFSADDLMSIDLAEQMANDSDDSISAATNKGRGRGRGRRGGRGQNSASRGGSQRGRADTGLETSTRSRNSKTAVSASRNMSIIDAFKSTRQQPSRNVTTKNYSEVIEVDESDVEEDIFPTTSKTDQRWSSTSSSKIMSQSQVSKGVDFESSEDDDDDPFMNTSSLRRNRR
notes: Mre11, human, from human MRE11 cDNA in pFASTBAC1; also called M of MRN, Mre11/Rad50 and M2R2; source: Sf9, baculovirus, co-purified with Rad50-3×FLAG (anti-FLAG M2 beads, HiTrapQ, Superdex 200)
As to B1, the “stoichiometry N” value in data set [1] is ~1 Rad50 to Mre11, molar ratio.

B2: S. pombe Rad50 (natural protein, UniProt Q9UTJ8 1-1285, looked up)
chain: MSCIDRMSIMGIRSFDNRSRESIQFFSPLTLIVGQNGSGKTTIIECLKYATTGILPPNTKGGAFIHDPKICGEKEVLAQVKLAFRNTNQVKMICTRSLQLSVKKTTRQQKTLDGQLLILKDNERTTISNRCAELDSQVPLSLGVSKALLDYVIFCHQEESFWPLSEPANLKKRFDEIFESLRYAKALDQIKGLKRDQETQVKVDQATLTHYRSDKERAEKIELRVHESLKRISCIRSKVEELDQEITETARLQDELFKSTEEYEQQMITIRHLESQSDIINTTINDLKSQMTITDESSEDLEKLHSNFAEKVKEEQELYKSLEKKRSDLESLLKSRRELLEKLTGDLGKIQGEIESLEKLKVKKSTMINEIVHRYNINEINEEGIMTEVSKYASLVNKNYEISSGKLKERQVAVRARIEGIKAHEMFLNNRVSEINSSLEKQLTTQKELRSRFEILFPVKLQREDFTKDVEKSDLWIKSLRQEYESKNLLELLDKHQTALSSVENRLDEISEIVDSYHKYSGVRTKLQVFEENKTNKSAILANQLMTLKSSFSEVMSYELKDDDNYNEELDKLVEDVRKKLQEKEEAESSLRSVRERLEIRISLSVQSINDLTENKKIKTKTLKSYSGTFASMISEIKALESEIEENRKTLHSLQFGSTFYEKAIEICVDQHACQLCQRSLDKEEEKLFVEHCHSMIDVIPSKSAEVYSHLETLTKTFKNLSEAKPIFDEIELLDKRLSETKTELSDLQGDLQGLDIRKDEIQSELDTLYLRRANLEKLQLLVKDISNLEEEIRTIDRETEVLRIELPSSIAHHNLDEIYAEREKLLEKRGYLRKQIERTKLEETSFKKKIDDAVLANNEQKLKLTKLNFQVNELEQLEKDINKSSEDCDLQKKKLLEVSSKQGSQAPFLNELESEYEKLEADIQEMAQKSRTEILEANEYLHQLNEWNSELRIDVSTKFKCIKEKKSNIGEEVRIIASKIESTDDNLRKLQERLADLRTRERNASDNLRLRALMRQLEEAVTQKNYLLSQQSHDDRESFRERMQILKSKYGALNAERAGLLGECKQLENSITKDKEELNMEFKDADERFRRQLIKTKTTGKANEDLGKYAKALDVAIMQLHSMKMNEINRIVDELWKQTYCGTDIDTILIRSDSEGKGNRTYNYRVCMVKGDAELDMRGRCSAGQKVLACIIIRLALAECLGVNCGILALDEPTTNLDEENICSLAKNLSRIVEFRRKQANFQLIVITHDEQFIRLVNSDAYCSYYYRVKRDTNQKSMIVKEPL
notes: Rad50, S. pombe; The host is a wild-type strain, so endogenous Rad50 and Mre11 were also present; also called fission yeast Rad50; rad50:TEV:PA; source: S. pombe CA3, from pREP1-rad50:TEV:PA, co-purified with Mre11-3xFLAG (anti-FLAG M2 agarose, HRV3C elution, Superose 6HR)
For B2, the binding result in data set [2] is “binds”.

B3: E. coli SbcC (natural protein)
chain: not shown
notes: SbcC (E. coli Rad50), E. coli; also called E. coli Rad50; SbcC of SbcCD; source: E. coli DL776 with plasmid pDL761, purified as SbcCD (HiTrap DEAE, ammonium precipitation, Superose 6, Mono Q)
Consider B3, for which the binding result in data set [2] is on record as “binds”.
